Measured values published in patent publication US20210269532A1.

Columns and labels:
[1] = molecular target: chimeric mouse AXL ECD with human Ig1 domain, His-tagged (human; mouse) (UniProt Q00993); assay: BLI (Octet QK384), His-tagged protein captured on Anti-Penta-HIS sensors, antibody at saturating conditions; white cell
[2] = molecular target: His-tagged human AXL extracellular domain (recombinant) (human) (UniProt P30530); assay: SPR classical sandwich assay (IBIS MX96): 100 nM analyte over AXL-His ECD held by surface-captured 22995; white cell = sandwiching
His-tagged human AXL extracellular domain (recombinant) (human), sequence (P30530 26-451): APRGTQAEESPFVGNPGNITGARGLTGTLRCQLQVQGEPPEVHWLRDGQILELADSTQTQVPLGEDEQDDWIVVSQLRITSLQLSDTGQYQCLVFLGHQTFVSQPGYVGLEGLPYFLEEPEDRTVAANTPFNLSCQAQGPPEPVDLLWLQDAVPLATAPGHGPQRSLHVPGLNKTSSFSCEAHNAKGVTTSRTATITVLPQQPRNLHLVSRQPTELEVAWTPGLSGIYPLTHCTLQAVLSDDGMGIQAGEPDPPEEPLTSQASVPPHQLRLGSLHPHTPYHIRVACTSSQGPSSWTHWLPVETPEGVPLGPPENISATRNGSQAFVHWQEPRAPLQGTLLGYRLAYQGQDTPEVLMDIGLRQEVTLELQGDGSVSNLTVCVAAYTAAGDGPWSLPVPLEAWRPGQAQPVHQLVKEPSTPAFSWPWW

[3] = molecular target: His-tagged human AXL extracellular domain (recombinant) (human) (UniProt P30530); assay: SPR classical sandwich assay (IBIS MX96): 100 nM analyte over AXL-His ECD held by the surface-captured Control antibody (f2); white cell = sandwiching
[4] = molecular target: His-tagged human AXL extracellular domain (recombinant) (human) (UniProt P30530); assay: BLI (Octet QK384), His-tagged protein captured on Anti-Penta-HIS sensors, antibody at saturating conditions; row HuAXL_ECD, the reference of the normalization
[5] = molecular target: His-tagged human AXL extracellular domain (recombinant) (human) (UniProt P30530); assay: SPR classical sandwich assay (IBIS MX96): 100 nM analyte over AXL-His ECD held by surface-captured YW327.6S2 IgG1-LALA analogue; white cell = sandwiching
[6] = molecular target: His-tagged human AXL extracellular domain (recombinant) (human) (UniProt P30530); assay: SPR classical sandwich assay (IBIS MX96): 100 nM analyte over AXL-His ECD held by surface-captured 10G5 analogue; grey cell = blocked (self)
[7] = molecular target: His-tagged human AXL extracellular domain (recombinant) (human) (UniProt P30530); assay: SPR classical sandwich assay (IBIS MX96): 100 nM analyte over AXL-His ECD held by surface-captured 23203-1; white cell = sandwiching
[8] = molecular target: His-tagged human AXL extracellular domain (recombinant) (human) (UniProt P30530); assay: SPR classical sandwich assay (IBIS MX96): 100 nM analyte over AXL-His ECD held by surface-captured 22883; grey cell = blocked

chimeric mouse AXL ECD with human Ig1 domain, His-tagged (human; mouse), sequence (Q00993 other isoform, or with tags, fused parts or gaps mutant limits assumed): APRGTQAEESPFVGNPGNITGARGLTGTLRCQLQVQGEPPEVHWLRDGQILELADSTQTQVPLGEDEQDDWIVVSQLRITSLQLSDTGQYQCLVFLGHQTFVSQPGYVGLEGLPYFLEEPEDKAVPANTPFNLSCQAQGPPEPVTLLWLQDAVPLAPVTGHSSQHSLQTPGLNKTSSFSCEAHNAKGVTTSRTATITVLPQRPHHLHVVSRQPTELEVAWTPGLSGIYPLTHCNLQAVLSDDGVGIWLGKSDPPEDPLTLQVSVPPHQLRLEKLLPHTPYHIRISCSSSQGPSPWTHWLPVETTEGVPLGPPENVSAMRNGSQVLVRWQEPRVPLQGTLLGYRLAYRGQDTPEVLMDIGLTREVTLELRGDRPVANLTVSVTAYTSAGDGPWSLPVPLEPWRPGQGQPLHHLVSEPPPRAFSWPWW

BLI response (nm) normalized to full-length human AXL-ECD [1]: 0.9
normalized SPR sandwich response [2]: 1.3
normalized SPR sandwich response [3]: 1.2
BLI response (nm) normalized to full-length human AXL-ECD [4]: 1
normalized SPR sandwich response [5]: 1.6
normalized SPR sandwich response [6]: -0.2
normalized SPR sandwich response [7]: 1.2
normalized SPR sandwich response [8]: -0.1
B1: 10G5 analogue (BerGenBio) (antibody, from another filing, V domains shown)
VH: QVQLQQSGAELVRPGASVKLSCKASGYSFTDFYINWVRQRPGQGLEWIARIFPGGDNTYYNEKFKGKATLTAEESSSTAYIQLSSLTSEDSAVYFCARRGLYYAMDYWGQGISVTVSS
VL: DVLMTQTPLSLPVSLGDQASISCRSSQSLVHSNGIPYLHWYLQKPGQSPKLLIYRVSNRFSGVPDRFSGSGSGTDFTLKISRVEAEDLGVYFCSQGTHVPPTFGGGTKLEIK
